The values below come from the supplement of paper PMC11316812.

± gives the standard deviation of the averaged measurements.

The subject of data set [1] is MCF7. The experiment in a line: percentage of EdU-negative (G0-arrested) nuclei per well, 72 h; higher = more G0 arrest. The conditions noted are these: reference: sequence is the full UniProt precursor, the tested protein was the secreted form or ectodomain.
Data set [2] deals with hTERT-HMEC. The description is as above. The settings on record: reference: sequence is the full UniProt precursor, the tested protein was the secreted form or ectodomain.
Setting [3] is: protein concentration 0.03125 µM.
Where [4] appears, read: protein concentration 0.3125 µM.
Where [5] appears, read: protein concentration 0.02179 µM.
Setting [6] is: protein concentration 0.2179 µM.
Setting [7] is: protein concentration 0.023405 µM.
Setting [8] is: protein concentration 0.23405 µM.
Where [9] appears, read: protein concentration 0.00575 µM.
Setting [10] is: protein concentration 0.0575 µM.
Where [11] appears, read: protein concentration 0.0225 µM.
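Further: secreted proteins added to cultured cells, EdU pulse at the end, nuclei found by Hoechst imaging, EdU status from nuclear versus surrounding ring intensity ratio, PBS as neutral control.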

With “MRIWWLLLAIEICTGNINSQDTCRQGHPGIPGNPGHNGLPGRDGRDGAKGDKGDAGEPGRPGSPGKDGTSGEKGERGADGKVEAKGIKGDQGSRGSPGKHGPKGLAGPMGEKGLRGETGPQGQKGNKGDVGPTGPEGPRGNIGPLGPTGLPGPMGPIGKPGPKGEAGPTGPQGEPGVRGIRGWKGDRGEKGKIGETLVLPKSAFTVGLTVLSKFPSSDMPIKFDKILYNEFNHYDTAAGKFTCHIAGVYYFTYHITVFSRNVQVSLVKNGVKILHTKDAYMSSEDQASGGIVLQLKLGDEVWLQVTGGERFNGLFADEDDDTTFTGFLLFSSP [P0C862]”, the “percentage of EdU-negative” value in data set [1] (setting [3]) was 28.2 ± 0.72%; in data set [1] (setting [4]) it was 30.09 ± 0.089%; in data set [2] (setting [3]), 5.3 ± 0.76%; in data set [2] (setting [4]), 7.183 ± 0.018%.
Turning to “MDGWRRMPRWGLLLLLWGSCTFGLPTDTTTFKRIFLKRMPSIRESLKERGVDMARLGPEWSQPMKRLTLGNTTSSVILTNYMDTQYYGEIGIGTPPQTFKVVFDTGSSNVWVPSSKCSRLYTACVYHKLFDASDSSSYKHNGTELTLRYSTGTVSGFLSQDIITVGGITVTQMFGEVTEMPALPFMLAEFDGVVGMGFIEQAIGRVTPIFDNIISQGVLKEDVFSFYYNRDSENSQSLGGQIVLGGSDPQHYEGNFHYINLIKTGVWQIQMKGVSVGSSTLLCEDGCLALVDTGASYISGSTSSIEKLMEALGAKKRLFDYVVKCNEGPTLPDISFHLGGKEYTLTSADYVFQESYSSKKLCTLAIHAMDIPPPTGPTWALGATFIRKFYTEFDRRNNRIGFALAR”, the “percentage of EdU-negative” value was 27.1 ± 1.6% in data set [1] (protein concentration 0.007 µM); 24.9 ± 1.8% in data set [1] (setting [5]); 28.5 ± 1.1% in data set [1] (protein concentration 0.07 µM); 23.8 ± 2.5% in data set [1] (setting [6]); 4.96 ± 0.18% in data set [2] (protein concentration 0.007 µM); 5 ± 0.54% in data set [2] (setting [5]). The “percentage of EdU-negative” value in data set [2] (protein concentration 0.07 µM) came to 6.37 ± 0.25%; in data set [2] (setting [6]) it was 5.45 ± 0.35%.
In the case of “MKTPWKVLLGLLGAAALVTIITVPVVLLNKGTDDATADSRKTYTLTDYLKNTYRLKLYSLRWISDHEYLYKQENNILVFNAEYGNSSVFLENSTFDEFGHSINDYSISPDGQFILLEYNYVKQWRHSYTASYDIYDLNKRQLITEERIPNNTQWVTWSPVGHKLAYVWNNDIYVKIEPNLPSYRITWTGKEDIIYNGITDWVYEEEVFSAYSALWWSPNGTFLAYAQFNDTEVPLIEYSFYSDESLQYPKTVRVPYPKAGAVNPTVKFFVVNTDSLSSVTNATSIQITAPASMLIGDHYLCDVTWATQERISLQWLRRIQNYSVMDICDYDESSGRWNCLVARQHIEMSTTGWVGRFRPSEPHFTLDGNSFYKIISNEEGYRHICYFQIDKKDCTFITKGTWEVIGIEALTSDYLYYISNEYKGMPGGRNLYKIQLSDYTKVTCLSCELNPERCQYYSVSFSKEAKYYQLRCSGPGLPLYTLHSSVNDKGLRVLEDNSALDKMLQNVQMPSKKLDFIILNETKFWYQMILPPHFDKSKKYPLLLDVYAGPCSQKADTVFRLNWATYLASTENIIVASFDGRGSGYQGDKIMHAINRRLGTFEVEDQIEAARQFSKMGFVDNKRIAIWGWSYGGYVTSMVLGSGSGVFKCGIAVAPVSRWEYYDSVYTERYMGLPTPEDNLDHYRNSTVMSRAENFKQVEYLLIHGTADDNVHFQQSAQISKALVDVGVDFQAMWYTDEDHGIASSTAHQHIYTHMSHFIKQCFSLP”, the “percentage of EdU-negative” value stood at 24.2 ± 0.48% in data set [1] (protein concentration 0.009 µM); 24.2 ± 0.77% in data set [1] (setting [7]); 26.5 ± 0.49% in data set [1] (protein concentration 0.09 µM); 29.2 ± 1.1% in data set [1] (setting [8]); 4.55 ± 0.2% in data set [2] (protein concentration 0.009 µM); 5.17 ± 1.7% in data set [2] (setting [7]). Moreover, the “percentage of EdU-negative” value came to 6.07 ± 0.24% in data set [2] (protein concentration 0.09 µM) and 6.28 ± 0.073% in data set [2] (setting [8]).
For the sequence “MKWLLLLGLVALSECIMYKVPLIRKKSLRRTLSERGLLKDFLKKHNLNPARKYFPQWEAPTLVDEQPLENYLDMEYFGTIGIGTPAQDFTVVFDTGSSNLWVPSVYCSSLACTNHNRFNPEDSSTYQSTSETVSITYGTGSMTGILGYDTVQVGGISDTNQIFGLSETEPGSFLYYAPFDGILGLAYPSISSSGATPVFDNIWNQGLVSQDLFSVYLSADDQSGSVVIFGGIDSSYYTGSLNWVPVTVEGYWQITVDSITMNGEAIACAEGCQAIVDTGTSLLTGPTSPIANIQSDIGASENSDGDMVVSCSAISSLPDIVFTINGVQYPVPPSAYILQSEGSCISGFQGMNLPTESGELWILGDVFIRQYFTVFDRANNQVGLAPVA [P0DJD7]”, the “percentage of EdU-negative” value in data set [1] (setting [9]) worked out at 25.5 ± 2.2%; in data set [1] (setting [10]) it was 24.6 ± 1.6%; in data set [2] (setting [9]), 4.41 ± 0.41%; in data set [2] (setting [10]) it was 5.85 ± 0.73%.
As for “MPAIAVLAAAAAAWCFLQVESRHLDALAGGAGPNHGNFLDNDQWLSTVSQYDRDKYWNRFRDDDYFRNWNPNKPFDQALDPSKDPCLKVKCSPHKVCVTQDYQTALCVSRKHLLPRQKKGNVAQKHWVGPSNLVKCKPCPVAQSAMVCGSDGHSYTSKCKLEFHACSTGKSLATLCDGPCPCLPEPEPPKHKAERSACTDKELRNLASRLKDWFGALHEDANRVIKPTSSNTAQGRFDTSILPICKDSLGWMFNKLDMNYDLLLDPSEINAIYLDKYEPCIKPLFNSCDSFKDGKLSNNEWCYCFQKPGGLPCQNEMNRIQKLSKGKSLLGAFIPRCNEEGYYKATQCHGSTGQCWCVDKYGNELAGSRKQGAVSCEEEQETSGDFGSGGSVVLLDDLEYERELGPKDKEGKLRVHTRAVTEDDEDEDDDKEDEVGYIW”, the “percentage of EdU-negative” value in data set [1] (protein concentration 0.015 µM) is 24.9 ± 1%; in data set [1] (protein concentration 0.15 µM), 26.5 ± 1.8%; in data set [2] (protein concentration 0.015 µM), 5.37 ± 0.53%; in data set [2] (protein concentration 0.15 µM) it was 10.4 ± 1.6%.
With “MSRLPVLLLLQLLVRPGLQAPMTQTTPLKTSWVNCSNMIDEIITHLKQPPLPLLDFNNLNGEDQDILMENNLRRPNLEAFNRAVKSLQNASAIESILKNLLPCLPLATAAPTRHPIHIKDGDWNEFRRKLTFYLKTLENAQAQQTTLSLAIF”, the “percentage of EdU-negative” value came to 27.8 ± 0.94% in data set [1] (setting [3]), 23.6 ± 1.8% in data set [1] (setting [4]), 5.21 ± 0.57% in data set [2] (setting [3]) and 4.85 ± 0.58% in data set [2] (setting [4]).
In the case of “MPGGPGVLQALPATIFLLFLLSAVYLGPGCQALWMHKVPASLMVSLGEDAHFQCPHNSSNNANVTWWRVLHGNYTWPPEFLGPGEDPNGTLIIQNVNKSHGGIYVCRVQEGNESYQQSCGTYLRVRQPPPRPFLDMGEGTKNRIITAEGIILLFCAVVPGTLLLFRKRWQNEKLGLDAGDEYEDENLYEGLNLDDCSMYEDISRGLQGTYQDVGSLNIGDVQLEKP”, the “percentage of EdU-negative” value in data set [1] (setting [11]) was found to be 25.3 ± 0.85%; in data set [1] (protein concentration 0.225 µM), 27 ± 1.2%; in data set [2] (setting [11]), 5.39 ± 0.06%; in data set [2] (protein concentration 0.225 µM), 5.986 ± 0.025%.
